Assay results from article PMC10946326.

Tests used:
MORF WH1 = biological target: T1, MORF WH1 (Homo sapiens, UniProt Q8WYB5 5-84); assay: EMSA
T1 sequence: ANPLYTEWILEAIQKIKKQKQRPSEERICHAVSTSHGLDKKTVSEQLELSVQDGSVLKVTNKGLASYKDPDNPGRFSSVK

MOZ WH1 = biological target: T2, MOZ WH1 (Homo sapiens, UniProt Q92794 2-86); assay: NMR
T2 sequence: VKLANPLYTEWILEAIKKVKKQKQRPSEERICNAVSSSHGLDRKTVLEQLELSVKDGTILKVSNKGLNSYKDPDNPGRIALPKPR

MORF WH1;p300 TAZ2 = MORF WH1;p300 TAZ2 (Homo sapiens;Homo sapiens?, UniProt Q8WYB5;Q09472 5-84;1722-1812, |); assay: NMR
Chain of MORF WH1;p300 TAZ2 (Q09472 1722-1812, one chain of several): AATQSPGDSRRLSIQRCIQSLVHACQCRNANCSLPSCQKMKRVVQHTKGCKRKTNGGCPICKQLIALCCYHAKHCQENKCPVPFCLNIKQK

Measured: binding result

B1: CpG-DNA16 (dsDNA)
DNA 1: TAACCTGCGCACCATA
DNA 2: TATGGTGCGCAGGTTA
binds: all assays above
